T1: C subunit of human MUC1 expressed in HEK293T cells (HEK293T-v1) (human, UniProt P15941 1098-1255, limits assumed)
T1 construct: domain: C subunit of MUC1; also called MUC1-C
T1 sequence (looked up): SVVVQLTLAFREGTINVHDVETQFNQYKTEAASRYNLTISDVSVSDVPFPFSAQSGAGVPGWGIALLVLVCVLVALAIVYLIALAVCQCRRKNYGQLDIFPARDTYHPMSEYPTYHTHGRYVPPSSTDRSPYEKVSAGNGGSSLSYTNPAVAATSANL


How the values were obtained:
[1] = molecular target: T1, C subunit of human MUC1 expressed in …; assay: flow cytometry (PE MFI, corrected to G03 at 380 ug/mL) on HEK293T-v1 cells expressing MUC1 C subunit
Procedure: (§1) The soluble scFv prepared in Example 1 was diluted 5-fold to prepare a total of 8 serial dilutions. Each serial dilution was 380 μg/mL, 76 μg/mL, 15.2 μg/mL, 3.04 μg/mL, 0.608 μg/mL, 0.1216 μg/mL, 0.02432 μg/mL, 0.004864 μg/mL. A buffer used in soluble scFv dilution and cell washing was PBS containing 2% FBS and 10 mM EDTA. Four kinds of cells were prepared at a density of 1×10⁶/mL, respectively, and put in a 96 well U-bottom cell culture plate at a density of 1×10⁵/100 μl/well, followed by centrifugation at 1500 RPM for 5 minutes. The soluble scFv prepared previously was treated in an amount of 50 μl/well. The cells were left at 4° C. for 1 hour. 150 μl/well of the cell washing buffer was added thereto and then mixed, followed by centrifugation at 1500 RPM for 5 minutes. The supernatant was discarded, and 200 μl/well of the cell washing buffer was added thereto and then mixed, followed by centrifugation at 1500 RPM for 5 minutes. A goat anti-human IgG Fc-biotin antibody (Invitrogen, A18821) was diluted 500-fold, and 50 μl/well thereof was treated. The cells were left at 4° C. for 20 minutes. 150 μl/well of the cell washing buffer was added thereto and then mixed, followed by centrifugation at 1500 RPM for 5 minutes. The supernatant was discarded, and 200 μl/well of the cell washing buffer was added thereto and then mixed, followed by centrifugation at 1500 RPM for 5 minutes. PE-Streptavidin (BD Pharmigen, 554061) was diluted 1000-fold, and 50 μl/well thereof was treated. The cells were left at 4° C. for 20 minutes. 150 μl/well of the cell washing buffer was added thereto and then mixed, followed by centrifugation at 1500 RPM for 5 minutes. The supernatant was discarded, and 200 μl/well of the cell washing buffer was added thereto and then mixed, followed by centrifugation at 1500 RPM for 5 minutes. 80 μl/well of the cell washing buffer was added and mixed, followed by flow cytometry.
The affinity of the soluble scFv to the mucin1-expressing cells was confirmed by PE MFI values from the results of the flow cytometry. Each cell line without soluble scFv was stained with another fluorescent antibody (Goat anti-human IgG Fc-biotin antibody, PE-Streptavidin), which was used as a negative control value, and each cell line was treated with G03 at a concentration of 380 μg/mL, which was used as a positive control value, and MFI value was corrected as follows: […]

[2] = molecular target: T1, C subunit of human MUC1 expressed in …; assay: flow cytometry (PE MFI, corrected to G03 at 380 ug/mL) on HEK293T-v1 cells expressing MUC1 C subunit; 293T-v1 cells
Procedure: as §1, with “PE-Streptavidin (BD Pharmigen, 554061) was diluted 1000-fold, and 50 μl/well thereof was treated. The cells were left at 4° C. for 20 minutes. 150 μl/well of the cell washing buffer was added thereto and then mixed, followed by centrifugation at 1500 RPM for 5 minutes. The supernatant was discarded, and 200 μl/well of the cell washing buffer was added thereto and then mixed, followed by centrifugation at 1500 RPM for 5 minutes. 80 μl/well of the cell washing buffer was added and mixed, followed by flow cytometry.” left out

EC50 [2] | Binder | EC50 [1]
 | scFv 2447_3H02 (scFv, also called #9) scFv: EVQLLESGGGLVQPGRSLRLSCAASGFTFDDYAMHWVRQAPGKGLEWVSGISWDSGSIGYADSVKGRFTISRDNAKNSLYLQMNSLRAEDTALYYCAKDVSSGWYWYAFDIWGQGTLVTVSSGGGGSGGGGSGGGASSYELTQDPAVSVALGQTVRITCQGDILRSYYASWYQQKPGQAPVLVIYGKNNRPSGIPDRFSGSSSGNTASLTITGAQAEDEADYYCNSRDSSGNRVVFGGGTKLTVL | 1.41 µg/mL
 | scFv 2447_3B07 (scFv) scFv: QVQLVESGGVVVQPGGSLRLSCAASGFTFDDYAMHWVRQAPGRGLEWVSLTSWDGGSTYYADSVKGRFTISRDNSKNSLYLQMNSLRAEDTALYYCAKDHSSGWYNGGMDVWGQGTMVTVSSGGGGSGGGGSGGGASSYELTQDPAVSVALGQTVRITCQGDSLRSYYASWYQQKPGQAPVLVIYGKNNRPSGIPDRFSGSSSGNTASLTITGAQAEDEADYYCNSRDSSGNHVVFGGGTKLTVL | 3.86 µg/mL
 | scFv 2447_3H08 (scFv, also called #10) scFv: EVQLLESGGGLVQPGRSLRLSCAASGFTFDDYAMHWVRQAPGKGLEWVSGISWNSGSIDYADSVKGRFTISRDNSKNTLYLQMNSLRAEDTAVYYCARDRSSGWYTGSFDYWGQGTLVTVSSGGGGSGGGGSGGGASSYELTQDPAVSVALGQTVRITCQGDSLRSYYASWYRQKPGQAPVLVIYGKNNRPSGIPDRFSGSSSGNTASLTIIGAQAEDEADYYCQSRDSSDNRVLFGGGTKVTVL | 2.57 µg/mL
 | scFv 2447_2H08 (scFv) scFv: EVQLVQSGAEVKKPGASVKVSCKASGYTFTNYGISWVRQAPGQGLEWMGWISAYNGNTNYAQKLQGRVTMTTDTSTSTAYMELRSLRSDDTAVYYCARDPHILTGYYRGGWFDPWGQGTTVTVSSGGGGSGGGGSGGGASSYELTQDPAVSVALGQTVTITCQGDSLRTSYAGWLQQKPGQAPVLVLYGKTSRPSGIPDRFSGSTSGNTASLTITGAQAEDEAEYFCHSRDSNDNYLEVVFGGGTKLTVL | 21.7 µg/mL
> 380 µg/mL | scFv 2445_1F09 (scFv) scFv: EVQLLETGGGLIQPGGSLRLSCAASGFTVSSNYMSWVRQAPGKGLEWVSVIYSGGSTYYADSVKGRFTISRDNSKNTLYLQMNSLRAEDTAVYYCARDRGWNHGMDVWGQGTLVTVSSGGGGSGGGGSGGGASQSGLTQPPSASGTPGQRVTISCSGGSSEVGSRYVSWYQQLPGTAPRLLIYKNDRRPSGVPDRFSGSKSGSSASLAISGLRSEDEADYYCAAWDDSLNGYVFGTGTKLTVL | 

— patent US20250281533A1 (LG CHEM, published 2025)
